Where “and” joins values, the source holds several entries; their conditions need not be identical. Identical values can stand only once. Like-named read-outs stand apart in the source and are kept apart here.
Legend:
[1] = target: T1, recombinant venom-derived factor V from Pseudonaja textilis (pt-rFV) (Pseudonaja textilis, UniProt Q7SZN0 31-1460)
T1 sequence: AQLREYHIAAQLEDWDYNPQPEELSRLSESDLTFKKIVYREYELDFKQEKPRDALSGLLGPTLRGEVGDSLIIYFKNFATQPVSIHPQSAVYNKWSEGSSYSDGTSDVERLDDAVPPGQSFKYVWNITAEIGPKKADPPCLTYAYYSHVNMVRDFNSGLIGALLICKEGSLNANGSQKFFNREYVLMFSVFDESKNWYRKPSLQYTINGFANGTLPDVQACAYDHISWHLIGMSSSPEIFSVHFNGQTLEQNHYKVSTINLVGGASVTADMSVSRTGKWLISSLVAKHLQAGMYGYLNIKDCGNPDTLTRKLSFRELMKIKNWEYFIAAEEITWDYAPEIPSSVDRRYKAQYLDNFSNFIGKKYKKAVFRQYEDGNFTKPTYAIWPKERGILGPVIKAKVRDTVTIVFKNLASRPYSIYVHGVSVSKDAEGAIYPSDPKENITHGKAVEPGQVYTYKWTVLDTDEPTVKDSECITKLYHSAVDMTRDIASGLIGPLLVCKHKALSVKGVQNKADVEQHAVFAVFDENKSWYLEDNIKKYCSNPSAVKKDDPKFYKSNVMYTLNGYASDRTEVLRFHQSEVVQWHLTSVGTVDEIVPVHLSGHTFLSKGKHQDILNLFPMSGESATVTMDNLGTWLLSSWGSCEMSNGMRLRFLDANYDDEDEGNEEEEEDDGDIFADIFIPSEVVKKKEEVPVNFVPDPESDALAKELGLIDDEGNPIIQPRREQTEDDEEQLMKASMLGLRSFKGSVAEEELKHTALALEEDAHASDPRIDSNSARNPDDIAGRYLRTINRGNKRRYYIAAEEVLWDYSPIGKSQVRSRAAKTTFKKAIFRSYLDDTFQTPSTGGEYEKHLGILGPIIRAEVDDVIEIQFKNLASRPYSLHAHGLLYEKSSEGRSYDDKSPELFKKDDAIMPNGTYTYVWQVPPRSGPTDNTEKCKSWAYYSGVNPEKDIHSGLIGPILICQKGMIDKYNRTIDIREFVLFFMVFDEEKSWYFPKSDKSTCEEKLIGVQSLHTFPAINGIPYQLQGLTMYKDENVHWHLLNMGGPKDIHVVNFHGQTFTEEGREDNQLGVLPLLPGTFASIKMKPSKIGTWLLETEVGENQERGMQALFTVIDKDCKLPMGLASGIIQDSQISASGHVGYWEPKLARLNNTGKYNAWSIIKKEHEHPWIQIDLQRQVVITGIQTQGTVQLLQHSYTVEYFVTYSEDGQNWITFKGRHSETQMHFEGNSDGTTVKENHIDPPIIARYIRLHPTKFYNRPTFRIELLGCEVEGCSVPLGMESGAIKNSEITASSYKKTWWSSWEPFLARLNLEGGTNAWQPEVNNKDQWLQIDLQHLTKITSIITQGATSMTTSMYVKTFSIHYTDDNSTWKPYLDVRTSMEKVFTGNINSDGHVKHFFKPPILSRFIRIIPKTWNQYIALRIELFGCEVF

[2] = target: T2, pt-rFVa (pt-rFV processed by thrombin) (Pseudonaja textilis, UniProt Q7SZN0 31-772; Q7SZN0 819-1460)
T2 sequence (heavy): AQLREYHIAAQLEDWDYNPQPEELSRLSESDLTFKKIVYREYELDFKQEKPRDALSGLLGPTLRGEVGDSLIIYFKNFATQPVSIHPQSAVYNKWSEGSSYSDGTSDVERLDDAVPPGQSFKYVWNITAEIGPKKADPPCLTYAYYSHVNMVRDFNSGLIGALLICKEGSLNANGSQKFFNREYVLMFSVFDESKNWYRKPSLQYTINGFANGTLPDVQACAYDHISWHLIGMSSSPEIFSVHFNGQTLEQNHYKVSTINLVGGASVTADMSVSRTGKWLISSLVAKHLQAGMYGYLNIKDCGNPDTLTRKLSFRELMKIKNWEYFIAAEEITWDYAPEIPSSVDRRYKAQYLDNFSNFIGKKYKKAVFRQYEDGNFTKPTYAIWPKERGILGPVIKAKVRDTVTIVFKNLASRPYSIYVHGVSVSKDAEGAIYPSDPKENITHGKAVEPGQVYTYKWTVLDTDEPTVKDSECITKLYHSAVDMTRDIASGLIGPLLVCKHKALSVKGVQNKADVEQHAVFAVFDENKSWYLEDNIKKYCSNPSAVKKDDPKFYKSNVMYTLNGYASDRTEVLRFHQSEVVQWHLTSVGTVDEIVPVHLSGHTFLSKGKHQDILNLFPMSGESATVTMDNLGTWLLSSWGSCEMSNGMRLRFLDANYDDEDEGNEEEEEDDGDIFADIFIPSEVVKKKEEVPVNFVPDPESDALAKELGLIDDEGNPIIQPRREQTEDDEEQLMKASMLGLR
T2 sequence (light): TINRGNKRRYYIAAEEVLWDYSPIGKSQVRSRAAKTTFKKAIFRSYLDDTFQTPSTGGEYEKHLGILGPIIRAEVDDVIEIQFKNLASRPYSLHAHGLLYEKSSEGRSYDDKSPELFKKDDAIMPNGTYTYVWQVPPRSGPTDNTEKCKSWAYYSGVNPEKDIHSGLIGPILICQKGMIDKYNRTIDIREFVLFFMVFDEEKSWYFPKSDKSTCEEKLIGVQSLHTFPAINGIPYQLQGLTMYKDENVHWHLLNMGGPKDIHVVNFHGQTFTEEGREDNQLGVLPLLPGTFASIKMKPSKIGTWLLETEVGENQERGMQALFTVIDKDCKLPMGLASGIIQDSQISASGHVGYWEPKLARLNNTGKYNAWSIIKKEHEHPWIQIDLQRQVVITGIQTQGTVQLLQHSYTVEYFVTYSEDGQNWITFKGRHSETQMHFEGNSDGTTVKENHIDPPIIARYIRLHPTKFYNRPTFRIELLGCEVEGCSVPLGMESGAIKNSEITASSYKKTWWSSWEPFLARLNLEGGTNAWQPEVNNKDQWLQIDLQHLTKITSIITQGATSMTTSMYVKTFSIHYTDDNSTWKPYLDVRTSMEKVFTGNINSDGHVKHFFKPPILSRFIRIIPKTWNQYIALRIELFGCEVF

[3] = target: hFV-810 (constitutively active partial B-domainless form of human FV) (human, UniProt P12259 29-2224)
Chain of hFV-810 (constitutively active partial B-domainless form of human FV) (P12259 other isoform, or with tags, fused parts or gaps limits assumed): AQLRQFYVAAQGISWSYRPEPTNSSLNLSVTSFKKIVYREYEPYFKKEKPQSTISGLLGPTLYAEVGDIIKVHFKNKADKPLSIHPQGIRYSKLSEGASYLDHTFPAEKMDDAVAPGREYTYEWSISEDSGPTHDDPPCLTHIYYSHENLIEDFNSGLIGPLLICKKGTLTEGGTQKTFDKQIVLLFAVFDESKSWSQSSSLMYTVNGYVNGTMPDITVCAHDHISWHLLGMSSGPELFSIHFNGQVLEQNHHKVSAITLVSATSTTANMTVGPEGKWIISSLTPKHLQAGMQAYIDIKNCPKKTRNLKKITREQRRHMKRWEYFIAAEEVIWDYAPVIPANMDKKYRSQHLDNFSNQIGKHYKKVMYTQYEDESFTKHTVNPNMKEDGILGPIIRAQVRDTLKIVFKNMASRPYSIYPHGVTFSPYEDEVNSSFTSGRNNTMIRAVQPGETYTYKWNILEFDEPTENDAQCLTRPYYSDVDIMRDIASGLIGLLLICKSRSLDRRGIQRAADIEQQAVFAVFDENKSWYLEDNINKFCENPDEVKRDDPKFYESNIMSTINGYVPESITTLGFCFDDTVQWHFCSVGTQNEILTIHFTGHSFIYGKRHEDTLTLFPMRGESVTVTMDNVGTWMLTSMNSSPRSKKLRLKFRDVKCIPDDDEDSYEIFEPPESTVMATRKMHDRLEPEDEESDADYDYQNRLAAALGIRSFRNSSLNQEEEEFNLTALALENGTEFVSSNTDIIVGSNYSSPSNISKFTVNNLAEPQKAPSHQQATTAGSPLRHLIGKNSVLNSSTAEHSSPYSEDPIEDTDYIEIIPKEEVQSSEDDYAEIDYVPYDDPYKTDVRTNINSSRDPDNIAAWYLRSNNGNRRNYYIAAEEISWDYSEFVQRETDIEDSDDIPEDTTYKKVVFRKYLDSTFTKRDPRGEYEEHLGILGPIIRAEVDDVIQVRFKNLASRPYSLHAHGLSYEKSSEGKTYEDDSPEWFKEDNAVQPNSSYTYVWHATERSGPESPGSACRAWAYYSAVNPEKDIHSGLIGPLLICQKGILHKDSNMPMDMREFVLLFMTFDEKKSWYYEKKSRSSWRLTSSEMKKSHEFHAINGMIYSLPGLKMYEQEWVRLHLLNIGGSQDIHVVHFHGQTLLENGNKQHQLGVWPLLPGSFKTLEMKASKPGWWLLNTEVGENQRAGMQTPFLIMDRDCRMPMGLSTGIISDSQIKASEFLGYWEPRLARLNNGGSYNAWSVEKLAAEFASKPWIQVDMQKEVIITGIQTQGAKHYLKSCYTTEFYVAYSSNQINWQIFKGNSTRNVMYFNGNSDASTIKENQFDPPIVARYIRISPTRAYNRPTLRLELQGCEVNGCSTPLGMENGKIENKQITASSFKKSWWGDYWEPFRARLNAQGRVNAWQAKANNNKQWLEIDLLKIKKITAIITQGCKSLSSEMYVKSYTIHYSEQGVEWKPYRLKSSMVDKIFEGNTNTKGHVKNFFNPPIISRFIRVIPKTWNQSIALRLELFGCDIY

[4] = target: T1, recombinant venom-derived factor V from …; test: fluorescent binding measurements, membrane-bound human FXa (data not shown)
[5] = target: T2, pt-rFVa (pt-rFV processed by thrombin); test: as above

Binder	Kd [1]	Kd [2]	Kd [3] [nM]	Kd [4] [nM]	Kd [5] [nM]
purified enzymatic subunit of pseutarin C (pt-FXa) (enzyme) chain 1: ANSLVEEFKSGNIERECIEERCSKEEAREVFEDDEKTETFWNVYVDGDQCSSNPCHYRGICKDGIGSYTCTCLSGYEGKNCERVLYKSCRVDNGNCWHFCKSVQNDIQCSCAEGYLLGEDGHSCVAGGNFSCGRNIKTRNK chain 2: IVNGMDCKLGECPWQAALVDDKKGVFCGGTILSPIYVLTAAHCINETETISVVVGEIDRSRAETGPLLSVDKVYVHKKFVPPKKSQEFYEKFDLVSYDYDIAIIQMKTPIQFSENVVPACLPTADFANQVLMKQDFGIVSGFGGIFERGPNSKTLKVLKVPYVDRHTCMLSSNFPITPTMFCAGYDTLPQDACQGDSGGPHITAYRDTHFITGIVSWGEGCARKGRYGIYTKLSKFIPWIKRIMRQKLPSTESSTGRL	3.06 nM and 8.08 nM	3.84 nM and 7.54 nM	3.76		
human factor Xa (membrane-bound human FXa) (enzyme, also called rFXa; human rFXa) chain 1: ANSFLEEMKKGHLERECMEETCSYEEAREVFEDSDKTNEFWNKYKDGDQCETSPCQNQGKCKDGLGEYTCTCLEGFEGKNCELFTRKLCSLDNGDCDQFCHEEQNSVVCSCARGYTLADNGKACIPTGPYPCGKQTLER chain 2: IVGGQECKDGECPWQALLINEENEGFCGGTILSEFYILTAAHCLYQAKRFKVRVGDRNTEQEEGGEAVHEVEVVIKHNRFTKETYDFDIAVLRLKTPITFRMNVAPACLPERDWAESTLMTQKTGIVSGFGRTHEKGRQSTRLKMLEVPYVDRNSCKLSSSFIITQNMFCAGYDTKQEDACQGDSGGPHVTRFKDTYFVTGIVSWGEGCARKGKYGIYTKVTAFLKWIDRSMKTRGLPKAKSHAPEVITSSPLK				> 400	> 400

Reference: patent publication US8557762 (CHILDREN S HOSPITAL OF PHILADELPHIA, dated 2013)
